According to publication PMC6771040, “Bispecific GRPR-Antagonistic Anti-PSMA/GRPR Heterodimer for PET and SPECT Diagnostic Imaging of Prostate Cancer” (Cancers, 2019):

Tests used:
PSMA [1] = settings: 1 h pi; cited from earlier work
[2] = system: PC3-PIP xenografts (PSMA and GRPR expressing); experiment: in vivo; set-up: species or system BALB/c nu/nu mice; settings: female, BALB/c nu/nu, mouse, iv, 50 pmol/mouse
Method: (§1) All animal experiments were planned and performed in accordance with the Swedish national legislation on the protection of laboratory animals and the study plans were approved by the Ethics Committee for Animal Research in Uppsala. Euthanasia was performed by the intraperitoneal injection of a ketamine-xylazine (Ketalar-Rompun) solution (200 mg/kg ketamine/Ketalar and 20 mg/kg xylazine/Rompun), and all efforts were made to minimize suffering. Prior to implantation, female outbred BALB/c nu/nu mice (n = 30) were quarantined for 1 week. The average animal weight at the time of the experiment was 16 ± 1 g. Xenografts expressing both PSMA and GRPR were established by the subcutaneous injection of ~0.8 × 10^7 PC3-PIP cells/mouse. Tumors were grown for 7 days and the average tumor weight at the time of the experiment was 0.3 ± 0.1 g. Before the experiments, animals were randomized into groups of four. Blood, salivary glands, lung, liver, spleen, pancreas, stomach, small intestines, kidneys, muscle, bone, and tumor samples were collected for radioactivity measurements. The gastrointestinal tract with content and the rest of the carcass were also collected. The activity of samples was measured together with the injection standard.
(§2) To evaluate the biodistribution over time, three groups of mice were intravenously co-injected through the tail vein with ^111In-6 and ^68Ga-6 (300 kBq for ^68Ga-6 and 40 kBq for ^111In-6) and sacrificed 1, 3, and 24 h pi. The total injected peptide mass was adjusted to 50 pmol/mouse.

in vivo = experiment: in vivo; set-up: species or system BALB/c nu/nu mice; settings: female, BALB/c nu/nu, mouse, iv, 50 pmol/mouse, total radioactivity, Tumor-to-organ ratio
Method: as §1, §2

PSMA [3] = target: T1, PSMA (Homo sapiens, UniProt Q04609); experiment: Competitive binding assay (IC50) towards PSMA on PC3-PIP cells
T1 construct: expressed in transfected cells; host or cells: PC3-PIP cells (PC-3 derived, kept under puromycin selection; obtained from Dr. Warren Heston, Cleveland Clinic)
Method: (§3) The half-maximal inhibitory concentration (IC50) values towards PSMA and GRPR were determined for ^natIn-6 using PC3-PIP cells. ^111In-PSMA-617 was used as a displacement radioligand for PSMA and ^111In-DOTA-PEG2-RM26 was used for GRPR, respectively. Due to the presence of both targets on PC3-PIP cells, in each experiment, the secondary target was blocked with either 1 mM solution of NOTA-PEG6-RM26 or 2 mM PSMA-11. For comparison, the IC50 values were determined for the corresponding monomers towards PSMA and GRPR under the same experimental conditions. Briefly, cell monolayers were incubated with the radioligand (1 nM) at 4 °C for 5 h in the presence of increasing concentrations of ^natIn-loaded conjugates (0–540 nM for GRPR-targeting analogs, and 0–7500 nM for PSMA-targeting, respectively). Following incubation, cells were collected and the cell-associated radioactivity was measured in an automated gamma-counter. The IC50 values were calculated by nonlinear regression using GraphPad Prism software (GraphPad Software Inc., San Diego, CA, USA).

GRPR = GRPR (Homo sapiens, UniProt P30550)
Method: as §3

T1 sequence (Q04609 whole entry): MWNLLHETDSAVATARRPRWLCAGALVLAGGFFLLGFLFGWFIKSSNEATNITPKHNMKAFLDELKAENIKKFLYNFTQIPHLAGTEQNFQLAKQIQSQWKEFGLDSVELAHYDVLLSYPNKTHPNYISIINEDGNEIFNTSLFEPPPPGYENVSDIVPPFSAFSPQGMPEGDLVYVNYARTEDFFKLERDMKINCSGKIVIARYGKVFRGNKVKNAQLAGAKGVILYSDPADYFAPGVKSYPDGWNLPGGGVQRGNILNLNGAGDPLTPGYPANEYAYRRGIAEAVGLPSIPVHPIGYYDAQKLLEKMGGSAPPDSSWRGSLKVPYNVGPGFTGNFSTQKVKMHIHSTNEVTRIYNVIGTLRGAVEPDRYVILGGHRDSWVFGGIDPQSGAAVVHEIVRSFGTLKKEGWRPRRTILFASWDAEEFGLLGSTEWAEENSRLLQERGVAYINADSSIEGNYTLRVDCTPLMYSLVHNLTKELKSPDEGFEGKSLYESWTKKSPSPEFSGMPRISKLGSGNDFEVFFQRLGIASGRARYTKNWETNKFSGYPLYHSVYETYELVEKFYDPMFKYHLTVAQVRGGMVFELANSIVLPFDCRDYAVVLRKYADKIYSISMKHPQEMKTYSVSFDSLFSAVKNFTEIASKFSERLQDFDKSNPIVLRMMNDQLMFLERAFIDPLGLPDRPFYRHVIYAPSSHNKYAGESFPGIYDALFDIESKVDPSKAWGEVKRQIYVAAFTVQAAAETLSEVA
Chain of GRPR (P30550 whole entry): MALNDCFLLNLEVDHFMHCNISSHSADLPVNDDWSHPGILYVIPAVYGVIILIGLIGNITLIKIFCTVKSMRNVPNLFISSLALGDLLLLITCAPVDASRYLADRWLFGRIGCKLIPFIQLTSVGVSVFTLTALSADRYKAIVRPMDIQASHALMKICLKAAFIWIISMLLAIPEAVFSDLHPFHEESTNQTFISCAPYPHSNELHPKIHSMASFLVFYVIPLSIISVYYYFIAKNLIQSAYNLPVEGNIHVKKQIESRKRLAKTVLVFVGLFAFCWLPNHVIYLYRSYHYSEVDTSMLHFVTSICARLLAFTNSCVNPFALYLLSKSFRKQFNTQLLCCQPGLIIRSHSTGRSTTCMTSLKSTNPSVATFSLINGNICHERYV

SMILES: O=C([O-])CN(CCN(CC(=O)[O-])Cc1cc(CCC(=O)NCCCCCC(=O)NCCCC[C@H](NC(=O)N[C@@H](CCC(=O)O)C(=O)O)C(=O)O)ccc1[O-])Cc1cc(CCC(=O)O)ccc1[O-].[68Ga+3].[OH3+] [^68Ga-PSMA-11]
- activity uptake in the kidneys relative to tumors (PSMA [1]): 20 fold

SMILES: CC(C)C[C@H](NC(=O)C[C@H](O)[C@H](CC(C)C)NC(=O)[C@H](Cc1c[nH]cn1)NC(=O)CNC(=O)[C@@H](NC(=O)[C@H](C)NC(=O)[C@H](Cc1c[nH]c2ccccc12)NC(=O)[C@H](CCC(N)=O)NC(=O)[C@@H](Cc1ccccc1)NC(=O)CCOCCOCCOCCOCCOCCOCCNC(=O)[C@H](CCCCNC(=O)CN1CCN(CC(=O)O)CCN(CC(=O)O)CC1)NC(=O)CCCCCCCNC(=O)CC[C@H](NC(=O)N[C@@H](CCC(=O)O)C(=O)O)C(=O)O)C(C)C)C(N)=O [111In-6, metal not drawn]
- Tumor-to-organ ratio, Bone ([2]; 1 h): 75±50
- Tumor-to-organ ratio, Liver ([2]; 1 h): 22±4
- Tumor-to-organ ratio, Lung ([2]; 1 h): 32±3
- Tumor-to-organ ratio, Spleen ([2]; 1 h): 44±6
- Tumor-to-organ ratio, Blood ([2]; 3 h): 115±13
- Tumor-to-organ ratio, Liver ([2]; 3 h): 20±2
- Tumor-to-organ ratio, Lung ([2]; 3 h): 64±30
- Tumor-to-organ ratio, Salivary glands ([2]; 3 h): 93±10
- Tumor-to-organ ratio, Spleen ([2]; 3 h): 59±16
- tissue to tissue ratio at 1 h (in vivo; Blood): 30 ± 4
- tissue to tissue ratio at 24 h (in vivo; Blood): 192 ± 66
- tissue to tissue ratio at 3 h (in vivo; Bone): 52 ± 22
- tissue to tissue ratio at 24 h (in vivo; Bone): 19 ± 15
- tissue to tissue ratio at 1 h (in vivo; Kidneys): 1.2 ± 0.2
- tissue to tissue ratio at 3 h (in vivo; Kidneys): 1.4 ± 0.2
- tissue to tissue ratio at 24 h (in vivo; Kidneys): 0.6 ± 0.1
- tissue to tissue ratio at 24 h (in vivo; Liver): 4.8 ± 0.8
- tissue to tissue ratio at 24 h (in vivo; Lung): 34 ± 11
- tissue to tissue ratio at 1 h (in vivo; Muscle): 101 ± 25
- tissue to tissue ratio at 3 h (in vivo; Muscle): 210 ± 90
- tissue to tissue ratio at 24 h (in vivo; Muscle): 72 ± 59
- tissue to tissue ratio at 1 h (in vivo; Pancreas): 3.5 ± 0.8
- tissue to tissue ratio at 3 h (in vivo; Pancreas): 21 ± 1
- tissue to tissue ratio at 24 h (in vivo; Pancreas): 16 ± 2
- tissue to tissue ratio at 1 h (in vivo; Salivary glands): 72 ± 13
- tissue to tissue ratio at 24 h (in vivo; Salivary glands): 26 ± 4
- tissue to tissue ratio at 1 h (in vivo; Small intestine): 12 ± 4
- tissue to tissue ratio at 3 h (in vivo; Small intestine): 42 ± 9
- tissue to tissue ratio at 24 h (in vivo; Small intestine): 27 ± 6
- tissue to tissue ratio at 24 h (in vivo; Spleen): 30 ± 16
- tissue to tissue ratio at 1 h (in vivo; Stomach): 10 ± 3
- tissue to tissue ratio at 3 h (in vivo; Stomach): 29 ± 12
- tissue to tissue ratio at 24 h (in vivo; Stomach): 61 ± 52

SMILES: CC(C)C[C@H](NC(=O)C[C@H](O)[C@H](CC(C)C)NC(=O)[C@H](Cc1c[nH]cn1)NC(=O)CNC(=O)[C@@H](NC(=O)[C@H](C)NC(=O)[C@H](Cc1c[nH]c2ccccc12)NC(=O)[C@H](CCC(N)=O)NC(=O)[C@@H](Cc1ccccc1)NC(=O)CCOCCOCCOCCOCCOCCOCCNC(=O)[C@H](CCCCNC(=O)CN1CCN(CC(=O)O)CCN(CC(=O)O)CC1)NC(=O)CCCCCCCNC(=O)CC[C@H](NC(=O)N[C@@H](CCC(=O)O)C(=O)O)C(=O)O)C(C)C)C(N)=O [compound 6, Glu-Urea-Glu-Aoc-Lys(NOTA)-(PEG)6-RM26]
- fold change of IC50 for PSMA, heterodimer vs monomer (PSMA [3]; dimerization effect): 5 fold

SMILES: CC(C)C[C@H](NC(=O)C[C@H](O)[C@H](CC(C)C)NC(=O)[C@H](Cc1c[nH]cn1)NC(=O)CNC(=O)[C@@H](NC(=O)[C@H](C)NC(=O)[C@H](Cc1c[nH]c2ccccc12)NC(=O)[C@H](CCC(N)=O)NC(=O)[C@@H](Cc1ccccc1)NC(=O)CCOCCOCCOCCOCCOCCOCCNC(=O)[C@H](CCCCNC(=O)CN1CCN(CC(=O)O)CCN(CC(=O)O)CC1)NC(=O)CCCCCCCNC(=O)CC[C@H](NC(=O)N[C@@H](CCC(=O)O)C(=O)O)C(=O)O)C(C)C)C(N)=O [natIn-6, metal not drawn]
- IC50 (PSMA [3]; read-out: IC50 towards PSMA, PC3-PIP cells, 4 °C, 5 h, radioligand 111In-PSMA-617, GRPR blocked, natIn-loaded conjugates): 824 ± 230 nM
- fold change of IC50 for GRPR, heterodimer vs monomer (GRPR; dimerization effect): 10 fold
- IC50 (GRPR; read-out: IC50 towards GRPR, PC3-PIP cells, 4 °C, 5 h, PSMA blocked, natIn-loaded conjugates): 4 ± 1 nM

SMILES: O=C([O-])CN1CCN(CC(=O)[O-])CCN(CC(=O)NC[C@H]2CC[C@H](C(=O)N[C@@H](Cc3ccc4ccccc4c3)C(=O)NCCCC[C@H](NC(=O)N[C@@H](CCC(=O)O)C(=O)O)C(=O)O)CC2)CCN(CC(=O)[O-])CC1.[68Ga+3] [^68Ga-PSMA-617]
- activity uptake in the kidneys relative to tumors (PSMA [1]): 8 fold

SMILES: CC(C)C[C@H](NC(=O)C[C@H](O)[C@H](CC(C)C)NC(=O)[C@H](Cc1c[nH]cn1)NC(=O)CNC(=O)[C@@H](NC(=O)[C@H](C)NC(=O)[C@H](Cc1c[nH]c2ccccc12)NC(=O)[C@H](CCC(N)=O)NC(=O)[C@@H](Cc1ccccc1)NC(=O)CCOCCOCCOCCOCCOCCOCCNC(=O)[C@H](CCCCNC(=O)CN1CCN(CC(=O)O)CCN(CC(=O)O)CC1)NC(=O)CCCCCCCNC(=O)CC[C@H](NC(=O)N[C@@H](CCC(=O)O)C(=O)O)C(=O)O)C(C)C)C(N)=O [68Ga-6, metal not drawn]
- Tumor-to-organ ratio, Blood ([2]; 1 h): 24±3
- Tumor-to-organ ratio, Bone ([2]; 1 h): 30±11
- Tumor-to-organ ratio, Kidneys ([2]; 1 h): 1.2±0.1
- Tumor-to-organ ratio, Liver ([2]; 1 h): 5.9±0.9
- Tumor-to-organ ratio, Lung ([2]; 1 h): 15±3
- Tumor-to-organ ratio, Muscle ([2]; 1 h): 78±28
- Tumor-to-organ ratio, Pancreas ([2]; 1 h): 4.4±0.6
- Tumor-to-organ ratio, Salivary glands ([2]; 1 h): 43±8
- Tumor-to-organ ratio, Small intestine ([2]; 1 h): 11±3
- Tumor-to-organ ratio, Spleen ([2]; 1 h): 16±4
- Tumor-to-organ ratio, Stomach ([2]; 1 h): 10±4
- Tumor-to-organ ratio, Blood ([2]; 3 h): 44±6
- Tumor-to-organ ratio, Bone ([2]; 3 h): 67±21
- Tumor-to-organ ratio, Kidneys ([2]; 3 h): 0.9±0.2
- Tumor-to-organ ratio, Liver ([2]; 3 h): 4±1
- Tumor-to-organ ratio, Lung ([2]; 3 h): 28±17
- Tumor-to-organ ratio, Muscle ([2]; 3 h): 128±57
- Tumor-to-organ ratio, Pancreas ([2]; 3 h): 18±6
- Tumor-to-organ ratio, Salivary glands ([2]; 3 h): 43±8
- Tumor-to-organ ratio, Small intestine ([2]; 3 h): 33±27
- Tumor-to-organ ratio, Spleen ([2]; 3 h): 11±1
- Tumor-to-organ ratio, Stomach ([2]; 3 h): 45±39
